Laboratory results as given in patent publication CN116769021A.
Like-named read-outs stand apart in the source and are kept apart here.

B1: 抗AHSV VP7单克隆抗体1H4 (monoclonal antibody 1H4 against African horse sickness virus VP7 protein) (antibody, V domains shown)
VH: EVQLVESGGGLVQPGGSLKLSCAASGFTFSRYGMSWVRQTPDKRLELVAIIKNDGRSSYYPDSVKGRFTIYRDNAKNTLYLQMSTLKSEDTAMYHCAYGSSLYWYFDVWGAGTTVTVSS
VL: DVLMTQTPLSLPVSLGDQASISCRSSQSIVHSNGNTYLEWYLQKPGQSPKLLIYKVSNRFSGVPARFSGSGSGTGFTLKISRVEAEDLGVYYCFQGSHVPPTFGGGTKLEIK

Experiments:
[1] = biological target: AHSV VP7重组蛋白 (recombinant African horse sickness virus VP7 protein) (African horse sickness virus)
[2] = biological target: AHSV VP7重组蛋白 (recombinant African horse sickness virus VP7 protein) (African horse sickness virus); remark: listed apart in the source
[3] = biological target: AHSV VP7重组蛋白 (recombinant African horse sickness virus VP7 protein) (African horse sickness virus); assay: indirect ELISA on coated recombinant VP7; end-point titer by P/N > 2.1
[4] = biological target: AHSV VP7重组蛋白 (recombinant African horse sickness virus VP7 protein) (African horse sickness virus); assay: indirect ELISA on coated recombinant VP7 (0.5 ug/mL); 1H4 at 1 ug/mL (1:2000)
[5] = biological target: AHSV VP7重组蛋白 (recombinant African horse sickness virus VP7 protein) (African horse sickness virus); assay: indirect ELISA on coated recombinant VP7 (0.5 ug/mL); 1H4 at 0.5 ug/mL (1:4000)
[6] = biological target: AHSV VP7重组蛋白 (recombinant African horse sickness virus VP7 protein) (African horse sickness virus); assay: indirect ELISA on coated recombinant VP7 (0.5 ug/mL); 1H4 at 0.25 ug/mL (1:8000)

Molecule | OD450 [1] [OD450] | OD450 [2] [OD450] | 效价 (ELISA titer, P/N > 2.1) (dilution factor (1:x)) [3] | 效价对应的稀释浓度 (antibody concentration at the end-point titer) [3] [ng/mL] | OD450 [4] [OD450] | OD450 [5] [OD450] | OD450 [6] [OD450]
阴性抗体 (negative antibody) | 0.0378 | – | – | – | – | – | –
B1 | – | 3.58 | 1.02e+06 | 1.95 | 4.09 | 2.87 | 2.93
